Experimental data published in the supplement of paper PMC11780869.

System: Bacillus subtilis
Assay: cleaved RNA product abundance (RNA/gDNA barcode ratio) relative to median wild-type variant (ratio to wild type); higher = more accumulation of the downstream cleavage product
How it was run: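 Cleaved product abundance is expressed as the RNA:gDNA barcode ratio per construct, scaled to the median construct carrying the unmutated site. The constructs were barcoded, mutagenized RNase Y cleavage-site windows in truncated aprE or tetM reporter mRNAs integrated into the B. subtilis chromosome. Cultures grew in LB at 37°C from OD600 0.0003 to 0.3 before cleaved RNA was gel-selected and barcode-sequenced.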

[1] = experiment (reporter, strain, medium): exp 8a: truncated aprE reporter, strain BJT201 with 2% xylose (RNase J1 expressed), cleavage site: glnRA (positions -5 to +31 mutated)
[2] = experiment (reporter, strain, medium): exp 2b: truncated aprE reporter, strain BJT200, cleavage site: cggR-gapA (positions -7 to +36 mutated)
[3] = experiment (reporter, strain, medium): exp 4a: truncated aprE reporter, strain BJT201 with 2% xylose (RNase J1 expressed), cleavage site: cggR-gapA (positions -7 to +36 mutated)
[4] = experiment (reporter, strain, medium): exp 6: tetM reporter, strain 168, cleavage site: cggR-gapA (positions -7 to +36 mutated)

CGACATGTCCCGCTTCTTTCATTAATCCGTAAGCAACTGTTTTGCTATATATATTTACCTTTTAAGAGGAGGAAT
cleaved RNA product abundance [1]: 0.449

ACAGACGAAGGAGCCGCAAAGAAGTTATTAATTGATGAATAATCCCTCAATATAAATATCTCTCACTTATTTAAA
cleaved RNA product abundance [2]: 0.0997
cleaved RNA product abundance [3]: 0.0964

ACAGACGAAGGAGCCGCAAAGAAGTTATTAATGGATGAATAATCCCTCAATTTAAATATCTCTCACTTATTTAAA
cleaved RNA product abundance [2]: 0.0807

ACAGACGAAGGAGCCGCAAAGAAGTTATTAAGGGCTTAATAATCCCTCAATATAAATATCTCTCACTTATTTAAA
cleaved RNA product abundance [3]: 0.481

ACAGACGAAGGAGCCGCAAAAAAGTTATTAAGGGATGAATAATCCCTCAAGATAAATATCTCTCACTTATTTAAA
cleaved RNA product abundance [2]: 0.251

CGACATGTCCCGCTTCTTTCATTAATCCGTTATCAACTGTTTTGCTATATAAATTTACCTTTTAAGAGGAGGAAT
cleaved RNA product abundance [1]: 0.243

ACAGACGAAGGAGCCGCAAAGAACTTATTAAGGGATGAATAATCCCTCAATATAAATATCTCTCACTTATTTAAA
cleaved RNA product abundance [2]: 0.448
cleaved RNA product abundance [3]: 0.509
cleaved RNA product abundance [4]: 0.575

CGACATGTCCCGCTTCTTTCATTAATCCGTCAGCAACTATTTTGCTATATACATTTACCTTTTAAGAGGAGGAAT
cleaved RNA product abundance [1]: 0.387

CGACATGTCCCGCTTCTTTCATTAATCCGTTATCAACTGTTTTGCCATATACATTTACCTTTTAAGAGGAGGAAT
cleaved RNA product abundance [1]: 0.145

ACAGACGAAGGAGCCGCAAAGAACTAATTAAGGGATGAATAATCCCTCAATATAAATATCTCTCACTTATTTAAA
cleaved RNA product abundance [3]: 0.321

ACAGACGAAGGAGCCGCAAAGAACTTATTAAGGAATGAATAATCCCTCAATATAAATATCTCTCACTTATTTAAA
cleaved RNA product abundance [3]: 0.117

ACAGACGAAGGAGCCGCAAAGAAGTTATTAAGTAATGAATAATCCCTCAATATAAATATCTCTCACTTATTTAAA
cleaved RNA product abundance [2]: 0.102
cleaved RNA product abundance [3]: 0.099

CGACATGTCCCGCTTCTTTCATTATTCCGTTAGCATCTGTTTTGCTATATACATTTACCTTTTAAGAGGAGGAAT
cleaved RNA product abundance [1]: 1.34

CGACATGTCCCGCTTCTTTCATTAATCAGTTAGCAACTGTTTTGATATATACATTTACCTTTTAAGAGGAGGAAT
cleaved RNA product abundance [1]: 0.648

ACAGACGAAGGAGCCGCAAAGAAGTTATTATGGGATGAATAATCCATCAATATAAATATCTCTCACTTATTTAAA
cleaved RNA product abundance [3]: 0.236

ACAGACGAAGGAGCCGCAAAGAAGTTATTAAGGGATGAATAAACCCACAATATAAATATCTCTCACTTATTTAAA
cleaved RNA product abundance [2]: 0.143
cleaved RNA product abundance [3]: 0.0828

ACAGACGAAGGAGCCGCAAAGAAGTTATTATGGGATGAATAATTCCTCAATATAAATATCTCTCACTTATTTAAA
cleaved RNA product abundance [2]: 0.149
cleaved RNA product abundance [3]: 0.246

ACAGACGAAGGAGCCGCAAAAAAGTTATTTAGGGATGAATAATCCCTCAATATAAATATCTCTCACTTATTTAAA
cleaved RNA product abundance [3]: 0.552

ACAGACGAAGGAGCCGCAAAGAACTTATTAAGGGATGAATAATCCCTCAATATAAACATCTCTCACTTATTTAAA
cleaved RNA product abundance [3]: 0.348

CGACATGTCCCGCTTCTTTCATTAATGCGTTAACAACTGTTTTGCTATATACATTTACCTTTTAAGAGGAGGAAT
cleaved RNA product abundance [1]: 0.228

ACAGACGAAGGAGCCGCAAAGAAGTTACTAAGGGATTAATAATCCCTCAATATAAATATCTCTCACTTATTTAAA
cleaved RNA product abundance [2]: 0.169
cleaved RNA product abundance [3]: 0.299

ACAGACGAAGGAGCCGCAAAGATGTTATTAAAGGATGAATAATCCCTCAATATAAATATCTCTCACTTATTTAAA
cleaved RNA product abundance [3]: 0.129

CGACATGTCCCGCTTCTTTCATTAATCCGTTACCAACTGTTTTGCTATATATATTTACCTTTTAAGAGGAGGAAT
cleaved RNA product abundance [1]: 0.212

CGACATGTCCCGCTTCTTTCATTAATCCGTTAGCAACTGTTTTGGTACATACATTTACCTTTTAAGAGGAGGAAT
cleaved RNA product abundance [1]: 0.119

ACAGACGAAGGAGCCGCAAAGAAGTTTTTAAGGGATGAATAATCCCACAATATAAATATCTCTCACTTATTTAAA
cleaved RNA product abundance [3]: 0.251

ACAGACGAAGGAGCCGCAAAGAAGTTATTAAAGGATGAATAATACCTCAATATAAATATCTCTCACTTATTTAAA
cleaved RNA product abundance [2]: 0.0942
cleaved RNA product abundance [3]: 0.121
cleaved RNA product abundance [4]: 0.108

CGACATGTCCCGCTTCTTTCATTAATCCCTTAGCAACTGTTTTTCTATATACATTTACCTTTTAAGAGGAGGAAT
cleaved RNA product abundance [1]: 0.163

ACAGACGAAGGAGCCGCAAAAAAGGTATTAAGGGATGAATAATCCCTCAATATAAATATCTCTCACTTATTTAAA
cleaved RNA product abundance [2]: 1.78
cleaved RNA product abundance [3]: 0.879

CGACATGTCCCGCTTCTTTCATTAATCCGTTAGAAAGTGTTTTGCTATATACATTTACCTTTTAAGAGGAGGAAT
cleaved RNA product abundance [1]: 0.368
